Tested on: Escherichia coli TOP10
Assay: shrunken log2 fold change of peptide-encoding DNA abundance (4.5 h post-induction vs induction); higher = less antimicrobial activity (less host growth inhibition)
Details: time post-induction: 4.5 h; library: site-saturation at positions 5, 18, 19, 20
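Note: peptides expressed intracellularly from a pBAD plasmid library in pooled LB shake-flask culture, induced with 0.3% L-arabinose, DNA abundance read by NGS, three biological replicates, DESeq2 with apeglm shrinkage.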

RRIRNRPPRLPRPRPRPEHGPRP and RRIRQRPPRLPRPRPRPQGHPRP are within 0.2 log units of each other in “shrunken log2 fold change” value: -0.0132 for the first, -0.017 for the second.

RRIRIRPPRLPRPRPRPEEWPRP and RRIRNRPPRLPRPRPRPYMMPRP are within 0.2 log units of each other in “shrunken log2 fold change” value: -0.128 for the first, -0.118 for the second.

RRIRCRPPRLPRPRPRPRVDPRP and RRIRKRPPRLPRPRPRPAGLPRP are within 0.2 log units of each other in “shrunken log2 fold change” value: 0.113 for the first, 0.126 for the second.

Going from RRIRGRPPRLPRPRPRPQSLPRP to RRIRWRPPRLPRPRPRPNVPPRP, the “shrunken log2 fold change” value falls from 0.251 to -0.144.

Compared with RRIRPRPPRLPRPRPRPYLHPRP, RRIRQRPPRLPRPRPRPYIKPRP is lower in “shrunken log2 fold change” value: -0.471 for the first, -1.38 for the second.

Going from RRIRNRPPRLPRPRPRPQVSPRP to RRIRSRPPRLPRPRPRPAGMPRP, the “shrunken log2 fold change” value rises from -0.434 to 0.223.

RRIRHRPPRLPRPRPRPMENPRP and RRIRTRPPRLPRPRPRPGPEPRP are within 0.2 log units of each other in “shrunken log2 fold change” value: 0.00439 for the first, 0.0888 for the second.

Going from RRIRMRPPRLPRPRPRPHPHPRP to RRIRFRPPRLPRPRPRPIWIPRP, the “shrunken log2 fold change” value falls from 0.187 to -0.234.

Compared with RRIRHRPPRLPRPRPRPKTDPRP, RRIRYRPPRLPRPRPRPKTDPRP is lower in “shrunken log2 fold change” value: -0.434 for the first, -0.863 for the second.

First: RRIRWRPPRLPRPRPRPQYRPRP
Second: RRIRGRPPRLPRPRPRPRDPPRP
The “shrunken log2 fold change” value of the first is lower: 0.00862 for the first, 1.32 for the second.

RRIRIRPPRLPRPRPRPVGNPRP and RRIRCRPPRLPRPRPRPFPSPRP are within 0.2 log units of each other in “shrunken log2 fold change” value: 0.00174 for the first, 0.118 for the second.

Going from RRIRRRPPRLPRPRPRPWPLPRP to RRIRTRPPRLPRPRPRPNYQPRP, the “shrunken log2 fold change” value falls from 0.468 to -0.362.

First: RRIRRRPPRLPRPRPRPACNPRP
Second: RRIRERPPRLPRPRPRPQQEPRP
The “shrunken log2 fold change” value of the first is higher: 0.654 for the first, -0.0361 for the second.

Going from RRIRGRPPRLPRPRPRPRITPRP to RRIRPRPPRLPRPRPRPSTWPRP, the “shrunken log2 fold change” value falls from 0.792 to 0.0689.

First: RRIRARPPRLPRPRPRPLARPRP
Second: RRIRMRPPRLPRPRPRPILNPRP
The “shrunken log2 fold change” value of the first is higher: 0.81 for the first, -0.248 for the second.

Going from RRIRWRPPRLPRPRPRPDCVPRP to RRIRPRPPRLPRPRPRPVSSPRP, the “shrunken log2 fold change” value falls from 0.197 to -0.0455.

Going from RRIRMRPPRLPRPRPRPEGLPRP to RRIRMRPPRLPRPRPRPAKSPRP, the “shrunken log2 fold change” value rises from 0.0151 to 0.261.

Going from RRIRDRPPRLPRPRPRPTGAPRP to RRIRERPPRLPRPRPRPWINPRP, the “shrunken log2 fold change” value falls from 1.37 to -0.637.

Compared with RRIRKRPPRLPRPRPRPGMSPRP, RRIRLRPPRLPRPRPRPYDRPRP is lower in “shrunken log2 fold change” value: 0.361 for the first, -0.0202 for the second.

RRIRIRPPRLPRPRPRPFDDPRP and RRIRSRPPRLPRPRPRPPRIPRP are within 0.2 log units of each other in “shrunken log2 fold change” value: 0.0183 for the first, 0.132 for the second.

Compared with RRIRYRPPRLPRPRPRPVFLPRP, RRIRRRPPRLPRPRPRPWKDPRP is higher in “shrunken log2 fold change” value: -0.538 for the first, -0.0442 for the second.

First: RRIRHRPPRLPRPRPRPMWPPRP
Second: RRIRWRPPRLPRPRPRPPLEPRP
The “shrunken log2 fold change” value of the first is lower: 0.0906 for the first, 0.474 for the second.

Compared with RRIRRRPPRLPRPRPRPYDEPRP, RRIRDRPPRLPRPRPRPGQSPRP is higher in “shrunken log2 fold change” value: -0.302 for the first, 0.116 for the second.

Compared with RRIRMRPPRLPRPRPRPIPNPRP, RRIRCRPPRLPRPRPRPWDTPRP is lower in “shrunken log2 fold change” value: 0.983 for the first, -0.282 for the second.

Going from RRIRSRPPRLPRPRPRPMQLPRP to RRIRERPPRLPRPRPRPFYFPRP, the “shrunken log2 fold change” value rises from 0.115 to 0.935.

Going from RRIRERPPRLPRPRPRPPYEPRP to RRIRQRPPRLPRPRPRPRMDPRP, the “shrunken log2 fold change” value rises from -0.296 to -0.0734.

First: RRIRHRPPRLPRPRPRPYQQPRP
Second: RRIRKRPPRLPRPRPRPFTWPRP
The “shrunken log2 fold change” value of the first is lower: -0.032 for the first, 1.37 for the second.

Going from RRIRLRPPRLPRPRPRPIINPRP to RRIRTRPPRLPRPRPRPSERPRP, the “shrunken log2 fold change” value rises from -0.448 to -0.186.

RRIRNRPPRLPRPRPRPSERPRP and RRIRDRPPRLPRPRPRPWNNPRP are within 0.2 log units of each other in “shrunken log2 fold change” value: -0.016 for the first, -0.0248 for the second.

Going from RRIRPRPPRLPRPRPRPKTTPRP to RRIRIRPPRLPRPRPRPGGTPRP, the “shrunken log2 fold change” value falls from 0.507 to -0.439.

RRIRRRPPRLPRPRPRPLYFPRP and RRIRHRPPRLPRPRPRPDYCPRP are within 0.2 log units of each other in “shrunken log2 fold change” value: -0.115 for the first, -0.01 for the second.

Going from RRIRSRPPRLPRPRPRPYGMPRP to RRIRCRPPRLPRPRPRPTHLPRP, the “shrunken log2 fold change” value rises from -0.0661 to 0.232.

First: RRIRMRPPRLPRPRPRPTNFPRP
Second: RRIRPRPPRLPRPRPRPTYNPRP
The “shrunken log2 fold change” value of the first is higher: -0.0912 for the first, -0.664 for the second.

Going from RRIRPRPPRLPRPRPRPFPQPRP to RRIRTRPPRLPRPRPRPSMLPRP, the “shrunken log2 fold change” value falls from 0.54 to -0.204.

First: RRIRARPPRLPRPRPRPDNMPRP
Second: RRIRTRPPRLPRPRPRPDLQPRP
The “shrunken log2 fold change” value of the first is lower: -0.45 for the first, -0.0382 for the second.

Compared with RRIRVRPPRLPRPRPRPHRFPRP, RRIRYRPPRLPRPRPRPRAPPRP is higher in “shrunken log2 fold change” value: 0.0259 for the first, 0.271 for the second.

Compared with RRIRSRPPRLPRPRPRPIYRPRP, RRIRGRPPRLPRPRPRPLTLPRP is higher in “shrunken log2 fold change” value: 0.0394 for the first, 0.275 for the second.

Going from RRIRFRPPRLPRPRPRPGRVPRP to RRIRRRPPRLPRPRPRPLLYPRP, the “shrunken log2 fold change” value falls from 0.787 to 0.138.

RRIRCRPPRLPRPRPRPHGIPRP and RRIRLRPPRLPRPRPRPEYGPRP are within 0.2 log units of each other in “shrunken log2 fold change” value: -0.0487 for the first, -0.029 for the second.

Compared with RRIRIRPPRLPRPRPRPPPNPRP, RRIRQRPPRLPRPRPRPQVLPRP is lower in “shrunken log2 fold change” value: 0.776 for the first, 0.00177 for the second.

Compared with RRIRLRPPRLPRPRPRPCLKPRP, RRIRSRPPRLPRPRPRPWTGPRP is higher in “shrunken log2 fold change” value: -0.682 for the first, -0.105 for the second.

Compared with RRIRFRPPRLPRPRPRPPRKPRP, RRIRLRPPRLPRPRPRPMVIPRP is lower in “shrunken log2 fold change” value: 0.827 for the first, 0.036 for the second.

RRIRWRPPRLPRPRPRPHWVPRP and RRIRQRPPRLPRPRPRPKLVPRP are within 0.2 log units of each other in “shrunken log2 fold change” value: 0.0436 for the first, -0.0518 for the second.

RRIRERPPRLPRPRPRPCITPRP and RRIRSRPPRLPRPRPRPMYMPRP are within 0.2 log units of each other in “shrunken log2 fold change” value: -0.395 for the first, -0.387 for the second.

RRIRVRPPRLPRPRPRPYIRPRP and RRIRERPPRLPRPRPRPMLSPRP are within 0.2 log units of each other in “shrunken log2 fold change” value: -0.434 for the first, -0.376 for the second.

RRIRERPPRLPRPRPRPQRCPRP was tested, and the “shrunken log2 fold change” value was -0.0721.

Source: the supplement of paper PMC9112550, “Optimization of the antimicrobial peptide Bac7 by deep mutational scanning” (BMC Biology, 2022)
